One data set has as its system HEK293 cells. Description: Penetration of fluorescently labelled inhibitors into cultured cells (flow cytometry). It counts as cell-based, human. The settings on record: incubation 10 to 30 minutes. Here is the method:
Fluorescently labelled inhibitors or fluorescein (Fs) as a control were incubated with suspended cells for time intervals ranging from 10 to 30 minutes. Cells were fixed with paraformaldehyde and permeabilized in 0.2% Tween-20 in PBS for 6 minutes and incubated with anti-fluorescein-Alexa™ 488 antibody (Molecular Probes, Eugene, Oreg.) in order to enhance detection of intracellular inhibitor present from penetration. Flow cytometry (FACSCalibur™) and confocal fluorescent microscopy (Leica TCS NT™) were performed at the Flow and Image Cytometry Lab, OUHSC.

Data set [1] can be described thus: Transport of conjugated inhibitors to mouse blood, spleen and brain after i.p. injection. The settings on record: mouse, in vivo, ip. On the procedure: Whole blood cells (with EDTA as anti-coagulant in the syringe or in the capillary tube) were isolated from anesthetized animals from the orbital artery or by heart puncture and diluted 1:10 in PBS. Prior to the harvest of other tissue samples, animals were anesthetized and perfused with 150 ml of neutral-buffered 10% formalin. Spleens were harvested intact. Brains were harvested and cerebral hemispheres separated, one for sectioning by cryostat, the other for single cell isolation for flow cytometry.
Sections of the brain hemispheres were obtained by soaking in OCT/PBS at 4° C. for overnight, recovered and frozen in Histo Prep Media.
To collect single cell suspensions, spleens and brain hemispheres were homogenized through a 30 μm screen and directly analyzed by flow cytometric analysis.

The next data set has as its target T1, memapsin 2 (Homo sapiens, UniProt P56817).
T1 construct: pET-11 vector-derived residues 1-15 of promemapsin 2-T1 (N, cleaved yes); made in house; host or cells: E. coli
Description: Inhibition of memapsin 2 proteolytic activity, fluorogenic substrate FS-2. It counts as biochemical. The settings on record: memapsin 2, carrier peptide-inhibitor conjugates; read-out: Ki apparent. The gist of the method:
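Spontaneously activated memapsin 2 (80 nM final) equilibrated with inhibitor (about 10 nM–10 μM) in 0.1 M NaOAc pH 4.0 with 10% DMSO for 20 min at 37 °C, with fluorogenic substrate FS-2. Ki converted from Ki apparent using substrate concentration and Km.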

For data set [2] the following is noted: Martin et al. 1999; cited from earlier work.

*1 amine or outer side, *2 acyl side, *3 side chain or, on linkers, in order; H or OH if unused. Where a SMILES comes first, the peptide text is derived from it. [ ]: non-standard residue; d: D form. The star is where a group is joined. LeuΨ(S-CHOHCH2)Ala = CC(C)C[C@H](N[*:1])[C@@H](O)C[C@@H](C)C(=O)[*:2]; 5FAM = O=C1OC2(c3ccc(O)cc3Oc3cc(O)ccc32)c2ccc(C(=O)*)cc21; Ahx = NCCCCCC(=O)O

T1 sequence (P56817 41-454 limits assumed): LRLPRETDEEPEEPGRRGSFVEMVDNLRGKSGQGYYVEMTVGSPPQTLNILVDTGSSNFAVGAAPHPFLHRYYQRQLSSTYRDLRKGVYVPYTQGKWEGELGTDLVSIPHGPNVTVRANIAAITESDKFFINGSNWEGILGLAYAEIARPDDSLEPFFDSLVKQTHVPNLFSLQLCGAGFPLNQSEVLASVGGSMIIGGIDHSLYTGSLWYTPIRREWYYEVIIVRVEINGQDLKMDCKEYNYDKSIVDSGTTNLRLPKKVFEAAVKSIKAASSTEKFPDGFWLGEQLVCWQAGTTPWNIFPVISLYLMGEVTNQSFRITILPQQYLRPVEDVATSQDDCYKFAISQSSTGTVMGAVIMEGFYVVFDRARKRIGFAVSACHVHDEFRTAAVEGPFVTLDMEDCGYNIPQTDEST

For `CC(C)C[C@H](NC(=O)[C@H](CCC(=O)O)NC(=O)CCCCCNC(=O)c1ccc2c(c1)C(=O)OC21c2ccc(O)cc2Oc2cc(O)ccc21)C(=O)N[C@@H](CC(=O)O)C(=O)N[C@@H](CC(C)C)[C@@H](O)C[C@@H](C)C(=O)N[C@H](C(=O)N[C@@H](CCC(=O)O)C(=O)N[C@@H](Cc1ccccc1)C(=O)NCC(=O)NCC(=O)N[C@H](CCCNC(=N)N)C(=O)N[C@H](CCCNC(=N)N)C(=O)N[C@H](CCCNC(=N)N)C(=O)N[C@H](CCCNC(=N)N)C(=O)N[C@H](CCCNC(=N)N)C(=O)N[C@H](CCCNC(=N)N)C(=O)N[C@H](CCCNC(=N)N)C(=O)N[C@H](CCCNC(=N)N)C(=O)N[C@H](CCCNC(=N)N)C(=O)O)C(C)C` [CPI-2] ({5FAM-Ahx}-ELD[LeuΨ(S-CHOHCH2)Ala]VEFGG[dR][dR][dR][dR][dR][dR][dR][dR][dR]-OH), the “Penetration of cultured cells (intracellular fluorescence)” value in the data set on HEK293 cells is “readily penetrated cultured cells within minutes”. In addition, the “Splenocytes with fluorescence peak shift” value in data set [1] was approximately 100%. In addition, the Ki on memapsin 2 stood at 58 nM.

Consider `CC(C)(C)NC(=O)[C@@H]1CN(Cc2cccnc2)CCN1C[C@@H](O)C[C@@H](Cc1ccccc1)C(=O)N[C@H]1c2ccccc2C[C@H]1O` [indinavir], for which the “Crossing of the blood-brain barrier” value in data set [2] is recorded as “can cross the blood-brain barrier”.

The record behind these values is patent US20040121947A1, “Compounds which inhibit beta-secretase activity and methods of use thereof” (Oklahoma Medical Research Foundation, priority 2000, published 2004).
